± gives the uncertainty stated by the source.
Assay: self-splicing fitness, log relative to wild type (ln ratio); higher = more splicing; Tetrahymena group I intron in knt gene, E. coli kanamycin selection, DiMSum; sequences stand for … in CUCUCU…GGAGGGAAAAGUUAUCAGGCAUGCACCUGGUAGCUAGUCUUUAAACCAAUAGAUUGCAUCGGUUUAAAAGGCAAGACCGUCAAAUUGCGGGAAAGGGGUCAACAGCCGUUCAGUACCAAGUCUCAGGGGAAACUUUGAGAUGGCCUUGCAAAGGGUAUGGUAAUAAGCUGACGGACAUGGUCCUAACCACGCAGCCAAGUCCUAAGUCAACAGAUCUUCUGUUGAUAUGGAUGCAGUUCACAGACUAAAUGUCGGUCGGGGAAGAUGUAUUCUUCUCAUAAGAUAUAGUCGGACCUCUCCUUAAUGGGAGCUAGCGGAUGAAGUGAUGCAACACUGGAGCCGCUGGGAACUAAUUUGUAUGCGAAAGUAUAUUGAUUAGUUUUGGAGUACUCGUGGUCG
Summary of the method: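 Six replicate transformations of E. coli BL21(DE3) with a pET-22b(+) library were grown overnight at 37°C or 30°C. The library randomised all eight P1ex-region intron nucleotides, the intron lying in the knt kanamycin-resistance gene, and plates were LB agar with or without 25 μg/mL kanamycin plus 100 μg/mL carbenicillin, 50 μM IPTG and 0.2% rhamnose. Pooled colonies were amplicon-sequenced on an Illumina HiSeq 2500, and fitness is the DiMSum error-weighted combination of wild-type-normalised replicate fold changes, kanamycin versus none.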

Sequence | self-splicing fitness (ln) (30 °C) | self-splicing fitness (ln) (37 °C)
UCGCAGCAAUAUUACGCAUU | -2.57 ± 0.18 | -2.43 ± 0.21
UGUUAGCAAUAUUACGACGU | -0.716 ± 0.11 | -1.37 ± 0.1
CCGUAGCAAUAUUACGUAGU | -3.13 ± 0.19 | -3.05 ± 0.33
AUAGAGCAAUAUUACGGUCU | -1.2 ± 0.11 | -0.695 ± 0.15
UAGAAGCAAUAUUACGGUAG | -1.88 ± 0.13 | -0.213 ± 0.13
CCCAAGCAAUAUUACGUCGG | -3.63 ± 0.12 | -2.51 ± 0.14
CGCAAGCAAUAUUACGUUUU | -4.46 ± 0.15 | -2.83 ± 0.16
UUUUAGCAAUAUUACGCACA | -0.201 ± 0.21 | -0.107 ± 0.19
CCGUAGCAAUAUUACGCUAA | -3.32 ± 0.35 | -1.35 ± 0.36
UCCCAGCAAUAUUACGCUUC | -2.73 ± 0.19 | -2.76 ± 0.48
AGCUAGCAAUAUUACGAUUG | -2.89 ± 0.24 | -1.98 ± 0.23
CGAGAGCAAUAUUACGGCGG | -1.63 ± 0.14 | -0.665 ± 0.26
GGUUAGCAAUAUUACGGAGC | -2.27 ± 0.24 | -1.43 ± 0.29
UGCCAGCAAUAUUACGAUGG | -3.49 ± 0.2 | -2.16 ± 0.18
UGCAAGCAAUAUUACGCCAU | -4.18 ± 0.42 | -1.87 ± 0.29
CAUGAGCAAUAUUACGAAAA | -3.45 ± 0.34 | -1.22 ± 0.2
UAACAGCAAUAUUACGUGGU | -2.87 ± 0.12 | -2.93 ± 0.2
CUCAAGCAAUAUUACGUUUG | -2.21 ± 0.12 | -2.8 ± 0.15
GUAAAGCAAUAUUACGCGUG | -1.05 ± 0.076 | -0.992 ± 0.08
GUGAAGCAAUAUUACGAUAG | -2.11 ± 0.19 | -0.681 ± 0.18
UAAAAGCAAUAUUACGAUCU | -0.413 ± 0.079 | 0.0961 ± 0.099
GGUGAGCAAUAUUACGACGC | -0.546 ± 0.19 | -0.0795 ± 0.28
CCGAAGCAAUAUUACGGCGG | -3.48 ± 0.15 | -2.15 ± 0.17
GCAAAGCAAUAUUACGGGGG | -3.28 ± 0.2 | -1.87 ± 0.18
CCAUAGCAAUAUUACGCAUC | -3.39 ± 0.27 | -2.31 ± 0.3

Sequence | self-splicing fitness (ln) (30 °C) | self-splicing fitness (ln) (37 °C)
GGAGAGCAAUAUUACGCCCU | -2.57 ± 0.42 | –
GGUCAGCAAUAUUACGCGCC | 0.245 ± 0.39 | –
GUCGAGCAAUAUUACGUCUG | -3.5 ± 0.43 | -2.51 ± 0.3
AGGAAGCAAUAUUACGUGGA | -3.05 ± 0.19 | -1.16 ± 0.13
AUAAAGCAAUAUUACGAUAA | -0.405 ± 0.079 | -0.094 ± 0.094
UAAAAGCAAUAUUACGGUUG | -1.53 ± 0.075 | -0.701 ± 0.096
UAAGAGCAAUAUUACGCGGU | -3.3 ± 0.3 | -2.15 ± 0.34
UCACAGCAAUAUUACGGAAA | -3.16 ± 0.24 | -1.85 ± 0.18
UACCAGCAAUAUUACGCCGA | -1.45 ± 0.16 | -0.513 ± 0.17
UCGAAGCAAUAUUACGGAAC | -3.33 ± 0.38 | -0.421 ± 0.39
UCACAGCAAUAUUACGCUCU | -2.38 ± 0.16 | -3.34 ± 0.47
AGAUAGCAAUAUUACGUUCC | -1.62 ± 0.2 | -1.48 ± 0.23
AUUCAGCAAUAUUACGGUAG | -3.49 ± 0.17 | -2.87 ± 0.2
UGAGAGCAAUAUUACGUCAU | -1.71 ± 0.26 | –
ACUUAGCAAUAUUACGCCCA | -1.29 ± 0.21 | -0.528 ± 0.22
AUGCAGCAAUAUUACGCCCA | -1.11 ± 0.12 | 0.0949 ± 0.14
UCAUAGCAAUAUUACGCUCG | -0.651 ± 0.15 | -0.277 ± 0.17
CCGCAGCAAUAUUACGGCGG | -4.17 ± 0.22 | -3.33 ± 0.26
ACCAAGCAAUAUUACGGUGU | -3.43 ± 0.11 | -2.18 ± 0.11
AACAAGCAAUAUUACGGAGC | -4.22 ± 0.3 | -3.65 ± 0.36
GAAUAGCAAUAUUACGUCUC | -0.581 ± 0.11 | -0.137 ± 0.16
CAUUAGCAAUAUUACGCUUC | -2.28 ± 0.34 | –
UUAUAGCAAUAUUACGUCAA | -1.61 ± 0.26 | -0.961 ± 0.22
CGGGAGCAAUAUUACGUACG | -2.98 ± 0.11 | -1.53 ± 0.097
CCUCAGCAAUAUUACGGAGU | -2.26 ± 0.089 | -1.03 ± 0.09

Sequence | self-splicing fitness (ln) (30 °C) | self-splicing fitness (ln) (37 °C)
AAGAAGCAAUAUUACGCUAU | -3.04 ± 0.17 | -1.44 ± 0.17
AAGGAGCAAUAUUACGAUGU | -2.12 ± 0.14 | -2.28 ± 0.23
ACUAAGCAAUAUUACGCGUC | -4.43 ± 0.41 | -2.1 ± 0.22
UGCUAGCAAUAUUACGCAAC | -3.07 ± 0.28 | -1.98 ± 0.2
GGAAAGCAAUAUUACGUUGC | -4.27 ± 0.35 | -2.2 ± 0.26
UCCCAGCAAUAUUACGUCUA | -2.5 ± 0.21 | -2.12 ± 0.22
CCCGAGCAAUAUUACGCAAU | -3.57 ± 0.25 | -2.94 ± 0.29
UCCGAGCAAUAUUACGCGGU | -3.33 ± 0.26 | -1.58 ± 0.17
CUAAAGCAAUAUUACGUUUC | -3.78 ± 0.18 | -2.69 ± 0.23
GAGCAGCAAUAUUACGACAC | -0.81 ± 0.23 | -0.627 ± 0.21
GUUCAGCAAUAUUACGCGUC | -1.41 ± 0.071 | -0.257 ± 0.078
UCGUAGCAAUAUUACGUAGG | -2.71 ± 0.17 | -0.631 ± 0.15
UCGCAGCAAUAUUACGGUAU | -3.36 ± 0.17 | -1.78 ± 0.21
GGGCAGCAAUAUUACGUACA | -0.35 ± 0.084 | -0.0196 ± 0.1
AGUCAGCAAUAUUACGGACG | -0.173 ± 0.07 | 0.0506 ± 0.1
GACAAGCAAUAUUACGUAAU | -2.61 ± 0.088 | -1.16 ± 0.081
AAGAAGCAAUAUUACGGAAC | – | -2.58 ± 0.45
AUAAAGCAAUAUUACGACGA | -0.00868 ± 0.096 | 0.701 ± 0.12
GGCUAGCAAUAUUACGCGUG | -0.672 ± 0.071 | -1.13 ± 0.083
CGGCAGCAAUAUUACGUAUU | -3.6 ± 0.16 | -3.11 ± 0.18
AGUAAGCAAUAUUACGGACC | -0.0938 ± 0.13 | 0.0977 ± 0.16
GAGAAGCAAUAUUACGAGAU | -4.47 ± 0.42 | -2.1 ± 0.22
CCUGAGCAAUAUUACGGUCU | – | -3.78 ± 0.42
CUCUAGCAAUAUUACGAAAG | -2.34 ± 0.2 | -2.11 ± 0.34
GGUCAGCAAUAUUACGUAGU | -0.367 ± 0.064 | 0.693 ± 0.075

Sequence | self-splicing fitness (ln) (30 °C) | self-splicing fitness (ln) (37 °C)
UCCCAGCAAUAUUACGAGCU | -3.05 ± 0.17 | -2.18 ± 0.2
UCACAGCAAUAUUACGUAUA | -2.64 ± 0.12 | -1.37 ± 0.1
CACUAGCAAUAUUACGAAAU | – | -1.38 ± 0.4
CGCCAGCAAUAUUACGGUAA | -0.8 ± 0.069 | 0.0236 ± 0.072
GACCAGCAAUAUUACGUCGA | -1.44 ± 0.078 | -0.592 ± 0.078
UUAGAGCAAUAUUACGAGCC | -0.789 ± 0.47 | –
AAGCAGCAAUAUUACGAUAC | -2.7 ± 0.14 | -1.7 ± 0.18
AUUCAGCAAUAUUACGCCUA | -0.46 ± 0.12 | -0.501 ± 0.13
CCUUAGCAAUAUUACGAAUU | – | -2.29 ± 0.49
ACGCAGCAAUAUUACGGGAA | -2.99 ± 0.14 | -2 ± 0.12
CGUGAGCAAUAUUACGUCGU | – | -2.72 ± 0.28
GCGCAGCAAUAUUACGGGUA | -2.4 ± 0.13 | -1.59 ± 0.1
UACGAGCAAUAUUACGGCAU | -3.45 ± 0.23 | -1.25 ± 0.15
UGCUAGCAAUAUUACGAGAU | -3.93 ± 0.31 | -2.41 ± 0.3
AGACAGCAAUAUUACGCCCG | -0.434 ± 0.17 | -0.555 ± 0.24
GCGCAGCAAUAUUACGUCUA | -0.763 ± 0.07 | -0.321 ± 0.079
UUUCAGCAAUAUUACGAACA | -0.771 ± 0.13 | 0.793 ± 0.22
GCGCAGCAAUAUUACGAUGU | -1.21 ± 0.077 | -0.279 ± 0.099
GCUAAGCAAUAUUACGAUCA | -1.29 ± 0.11 | -0.823 ± 0.093
GCACAGCAAUAUUACGAGCC | -3.2 ± 0.28 | -2.01 ± 0.23
CGAGAGCAAUAUUACGCAUA | -2.12 ± 0.44 | -1.44 ± 0.49
GGCAAGCAAUAUUACGGGCU | -2.53 ± 0.2 | -2.48 ± 0.2
GAGUAGCAAUAUUACGGGAA | -2.33 ± 0.21 | -2.14 ± 0.19

Source: the supplement of paper PMC7877785
